Experimental findings from patent publication US20230105714A1 are described below.

Assay [1] has as its target cynomolgus TIM-3 ECD Fc fusion (made in-house) (cynomolgus monkey (Macaca fascicularis); human). As to the kind of experiment: SPR (IBIS MX96), TIM-3 ECD-Fc captured, Fab injected 1-100 nM, 1:1 fit.
Assay [2] deals with cynomolgus TIM-3 Fc fusion antigen (Sino Biologicals) (cynomolgus monkey). The experiment in a line: ELISA, EC50 on cynomolgus TIM-3 against EC50 on human TIM-3. (In general: ELISA stands for enzyme-linked immunosorbent assay.)
Chain of cynomolgus TIM-3 Fc fusion antigen (Sino Biologicals) (cynomolgus monkey) (chain, as listed by the source limits assumed): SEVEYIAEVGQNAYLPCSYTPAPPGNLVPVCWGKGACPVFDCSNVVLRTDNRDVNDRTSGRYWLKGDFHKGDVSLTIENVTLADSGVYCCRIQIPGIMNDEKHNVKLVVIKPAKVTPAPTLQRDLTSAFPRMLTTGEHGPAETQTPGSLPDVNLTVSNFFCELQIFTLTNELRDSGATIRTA
For assay [3] the target is unchanged. As to the kind of experiment: ELISA, TIM-3 Fc fusion coated at 1 ug/ml, antibody titrated from 1000 nM.

As a reminder, the Kd is the concentration at which binding is half-saturated. The term EC50 denotes the concentration needed to bring the measured effect to its halfway point.

Chain of cynomolgus TIM-3 ECD Fc fusion (made in-house) (cynomolgus monkey (Macaca fascicularis); human) (chain, as listed by the source limits assumed): as above

“Fab fragment of 18564 ABTIM3 (reference analogue)”: in assay [1], the Kd is 25 nM.

B1: antibody 19416 (antibody, V domains shown)
VH: QVQLVESGPGLVKPSQTLSLTCTVSGGSINSGGYYWSWIRQHPGKGLEWIGYIYYSGSIYYNPSLRSRLTISVDTSKNQFSLKLSSVTAADTAVYYCATPYYYGSGSYGDYWGQGTLVTVSS
VL: DIQMTQSPATLSLSPGERATLSCRASQSVNNYLAWYQQKPGQAPRLLIYDASNRATGIPARFSGSGSGTDFTLTISSLEPEDFAVYYCQQRSNWPITFGQGTRLEIK
Consider B1, for which, in assay [2], the Ratio Cynomolgus/Human EC50 turned out to be 47. In assay [3], this molecule yielded an EC50 of 9.42 nM.
